Test results taken from patent US20230090114A1, “METHODS FOR PROMOTING WEIGHT LOSS” (89BIO LTD., priority 2020, published 2023).

Legend:
[1] = Organ/tissue weights on T28; type: in vivo, CD-1 mice; conditions: for eWAT weight: T28
Protocol: On T28, after 4 hours of fasting, a terminal sampling of blood and organs/tissues was performed on anaesthetized mice (by a mixture of Ketamine/Xylazine, 80/10 mg/kg). A large blood sample was collected by cardiac puncture, and the following organ/tissues were collected, weighed, snap-frozen in liquid nitrogen and stored at −80° C. for further analyses: […]

[2] = Total spontaneous activity and rearing (METABOpack sessions); type: in vivo, CD-1 mice; conditions: T2; WD; 0.3 and 3 mg/kg; vs Liraglutide
Protocol: Horizontal spontaneous activity and rearing behavior were recorded every second by the Physiocage System. The analysis was performed by plotting data every 30 minutes in order to obtain the kinetic of the behaviors. For each mouse, the sums of the activity and rearing events were calculated for each nycthemeral phase (Diurnal period or DP; Nocturnal period or NP and Whole Day or WD). The means per nycthemeral phase were then calculated for each group for statistical comparisons.

[3] = Body weight of CD-1 mice, 4-week SC treatment; type: in vivo
Protocol: Detailed Methods: Adult male CD-1 mice at 6 weeks of age at receipt (with an expected weight of 35-39 g) were purchased from Charles River (St Germain sur l'Arbresle, France). From receipt, mice were singly housed and allowed ad libitum access to water and to a control diet (pellet A04; SAFE, Villemoisson-sur-Orge, France), unless otherwise noted (see Section D.). Throughout the study, animals were maintained in an ambient temperature (22.0±1.0° C.) and humidity (40-50%) controlled room on a 12-h light/12-h dark cycle (9:00 PM: Light ON/9:00 AM Light OFF).
At receipt and until the end of the experiment, all animals fed the control diet (A04 pellet). Following the acclimation and habituation periods, forty-eight (48) mice were subcutaneously treated either with vehicle, liraglutide (as the benchmark) or 89BIO-100 (3 different doses tested).
From T1 to T28, vehicle and 89BIO100 (at the 3 different doses) were administrated by subcutaneous (SC) injection three times a week, while the treatment with liraglutide was administrated by subcutaneous route, twice a day, every day. It was important to notice that the first dosing was done just before the […] (at 9:00 AM) and the second dosing was done 8 hours after the first one (at 5:00 PM). Throughout the treatment period, FI and BW were daily measured.
General Methods: Naive CD-1 mice were treated subcutaneously (SC) for 4 weeks at ambient temperature with BIO89-100 at doses of 0, 0.3, 1.0 and 3.0 mg/kg (3qW×4 weeks) or with liraglutide at 0.2 mg/kg (BID×4 W; SC). BW and FC were measured daily throughout the treatment period. To investigate the impact of BIO89-100 on energy expenditure, the respiratory exchanges (VO2 and VCO2) were recorded during 3 distinct sessions of METABOpack™, a multiparametric approach allowing an automated and simultaneous recording of FC, water intake, respiratory exchanges and spontaneous activity. Meal pattern analysis was conducted on the high-resolution recordings of FC. The body composition (fat, lean and fluid masses) was analyzed 3 times during the study by the mean of Time-Domain Nuclear Magnetic Resonance (TD-NMR).

[4] = Water intake (METABOpack sessions); type: in vivo, CD-1 mice;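 for cumulative water intake: water intake recorded in mL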
Text: During the METABOpack™ sessions, animals were housed singly in the Physiocage System (Panlab/Harvard apparatus), which was composed of: • 8 physiocages (LE1301) • 8 Air tight lids for mouse (LE1303) • 8 grid floors for mouse (LE1317) • 8 Feeding bottles for mouse (LE1306) • 2 Air supply and switching units for up to 4 home cages each (LE4004FL) • 1 O2/CO2 analyzer (LE405) • 1 acquisition software suite, METABOLISM (V3.0).
In the present project, a METABOpack™ session was consisted of a 12-hour period of acclimation followed by a 48-hour period of recording of the respiratory exchanges, FI, water intake (WI) and locomotor activity of each animal.
Following this acclimation period, the parameters cited above were automatically and simultaneously recorded for 48 hours, except for body weight that was measured manually every day.
The METABOpack™ sessions were conducted at the start (T1-2), the middle (T14-15) and the end (T26-27) of the treatment period.

B1: Mutant FGF21-GalNAc-SA-PEG-20 kDa (conjugate)
chain: MHPIPDSSPLLQFGGQVRQRYLYTDDAQQTEAHLEIREDGTVGGAADQSPESLLQLKALKPGVIQILGVKTSRFLCQRPDGALYGSLHFDPEACSFRELLLEDGYNVYQSEAHGLPLHLPGNKSPHRDPAPRGPARFLPLPGLPPALPEPPGILAPQPPDVGSSDPLSMVGPTQGASPSYAS
- epididymal white adipose tissue (eWAT) weight ([1]; 89BIO-100 treated mice (summary)): strongly reduced
- eWAT weight ([1]; 1 and 3 mg/kg, vs vehicle): significant decrease in eWAT weight
- eWAT weight ([1]; among the three 89BIO-100 groups): no significant difference
- total spontaneous activity [2]: higher total spontaneous activity
- delta body weight ([3]; 0.3 mg/kg, vs Liraglutide, T2-T11, T13-T16): increase in delta body weight
- body weight ([3]; 0.3 mg/kg, vs Liraglutide, T2-T24 and T26): greater body weight
- delta body weight ([3]; 0.3 mg/kg, vs vehicle, T3-T6): increase in delta body weight
- delta body weight ([3]; 1 mg/kg, vs 0.3 mg/kg, T6-T21): significant decrease in delta body weight
- body weight ([3]; 1 mg/kg, vs Liraglutide, T2-T5): greater body weight
- delta body weight ([3]; 1 mg/kg, vs vehicle, T8-T21, T23, T24): marked decrease in delta body weight
- delta body weight ([3]; 3 mg/kg, vs 0.3 mg/kg, T5-T28): marked decrease in delta body weight
- delta body weight ([3]; 3 mg/kg, vs 1 mg/kg, T11, T12, T13, T15): significant decrease in delta body weight
- body weight ([3]; 3 mg/kg, vs 0.3 and 1 mg/kg, over treatment period): reduced the body weight
- delta body weight ([3]; 3 mg/kg, vs Liraglutide, T8-T13 and T25): significant decrease in delta body weight
- body weight ([3]; 3 mg/kg, vs Liraglutide, T11-T13): lower body weight
- delta body weight ([3]; 3 mg/kg, vs vehicle, T3 and T6-T28): marked decrease in delta body weight
- body weight ([3]; 3 mg/kg, vs vehicle, except T2, T3, T4): lower body weight
- body weight ([3]; 0.3 and 1 mg/kg, vs vehicle): did not show any difference in body weight
- body weight ([3]; 1 and 3 mg/kg, throughout treatment period (summary)): lower body weight in dose-dependent manner
- delta body weight ([3]; 1 and 3 mg/kg, vs Liraglutide, T2-T4): increase in delta body weight
- decrease in BW ([3]; naive CD-1 mice, 0.3-3.0 mg/kg SC 3qW x 4 weeks, dose-dependent, up to): up to −13.8%
- mean water intake ([4]; T1, DP, 3 mg/kg, vs 0.3 and 1 mg/kg): decreased
- mean water intake ([4]; T1, DP, 0.3 and 1 mg/kg, vs Liraglutide): increased
- mean water intake ([4]; T1, NP and WD, whatever the dose, vs Liraglutide): increase in mean water intake
- mean water intake ([4]; T1, three doses, vs vehicle): no significant difference
- cumulative water intake ([4]; T2, 0.3 mg/kg, vs Liraglutide, 5-24 h): increased
- cumulative water intake ([4]; T2, 0.3 mg/kg, vs vehicle, at 5, 6, 7, 9, 10 h and 12-24 h): increased
- cumulative water intake ([4]; T2, 1 mg/kg, vs Liraglutide, 4-24 h): increased
- cumulative water intake ([4]; T2, 1 mg/kg, vs vehicle, 4-24 h): increased
- cumulative water intake ([4]; T2, 3 mg/kg, vs Liraglutide, 2-24 h): increased
- cumulative water intake ([4]; T2, 3 mg/kg, vs vehicle, 2-24 h): increased
- mean water intake ([4]; T2, NP, 0.3 and 1 mg/kg, vs vehicle): increased
- mean water intake ([4]; T2, WD, whatever the dose, vs vehicle): increased
- cumulative water intake ([4]; T2, between the three 89BIO-100 groups): no significant difference
- mean water intake ([4]; T2, whatever the phase, whatever the dose, vs Liraglutide): increase in mean water intake
- cumulative water intake ([4]; T14, 1 mg/kg, vs 0.3 mg/kg, at 2 h and 7-24 h): increased
- cumulative water intake ([4]; T14, 3 mg/kg, vs 0.3 mg/kg, 3-24 h): increased
- cumulative water intake ([4]; T14, 1 and 3 mg/kg, vs Liraglutide, 2-24 h): increased
- cumulative water intake ([4]; T14, 1 and 3 mg/kg, vs vehicle, 2-24 h): increased
- mean water intake ([4]; T14, NP, 1 and 3 mg/kg, vs 0.3 mg/kg): increased
- mean water intake ([4]; T14, WD, 3 mg/kg, vs 0.3 mg/kg): increased
- mean water intake ([4]; T14, whatever the phase, 1 and 3 mg/kg, vs Liraglutide): increase in mean water intake
- mean water intake ([4]; T14, whatever the phase, 1 and 3 mg/kg, vs vehicle): increased
- cumulative water intake ([4]; T15, 1 mg/kg, vs 0.3 mg/kg, 2-24 h): increased
- cumulative water intake ([4]; T15, 3 mg/kg, vs 0.3 mg/kg, 1-15 h): increased
- cumulative water intake ([4]; T15, 1 and 3 mg/kg, vs Liraglutide, over 24 h): increased
- cumulative water intake ([4]; T15, 1 and 3 mg/kg, vs vehicle, over 24 h): increased
- cumulative water intake ([4]; T26, 1 mg/kg, vs Liraglutide, at 3 h, 4 h and 6-21 h): increased
- cumulative water intake ([4]; T26, 1 mg/kg, vs vehicle, only at 3 h and 4 h): increased
- cumulative water intake ([4]; T26, 3 mg/kg, vs 0.3 mg/kg, 5-16 h): increased
- cumulative water intake ([4]; T26, 3 mg/kg, vs Liraglutide, 3-24 h): increased
- cumulative water intake ([4]; T26, 3 mg/kg, vs vehicle, 3-24 h): increased
- mean water intake ([4]; T26, NP and WD, 3 mg/kg, vs vehicle): increased
- mean water intake ([4]; T26, NP, 3 mg/kg, vs 0.3 mg/kg): increased
- mean water intake ([4]; T26, NP, 1 and 3 mg/kg, vs Liraglutide): increase in mean water intake
- mean water intake ([4]; T26, WD, 3 mg/kg, vs Liraglutide): increase in mean water intake
- cumulative water intake ([4]; T27, 1 mg/kg, vs vehicle, 2-5 h): increased
- cumulative water intake ([4]; T27, 3 mg/kg, vs 0.3 mg/kg, at 1 h and 3-8 h): increased
- cumulative water intake ([4]; T27, 3 mg/kg, vs 1 mg/kg, at 3 h, 4 h, 5 h and 7 h): increased
- cumulative water intake ([4]; T27, 3 mg/kg, vs Liraglutide, over 24 h): increased
- cumulative water intake ([4]; T27, 3 mg/kg, vs vehicle, over 24 h): increased
- mean water intake ([4]; T27, NP and WD, 3 mg/kg, vs vehicle and Liraglutide groups): increased
- mean water intake ([4]; section On T15 (text prints T14), NP and WD, 1 and 3 mg/kg, vs vehicle): increased
- mean water intake ([4]; section On T15, NP and WD, 1 and 3 mg/kg, vs Liraglutide): increase in mean water intake
- mean water intake ([4]; section On T15, NP, 1 and 3 mg/kg, vs 0.3 mg/kg): increased
- mean water intake ([4]; section On T15, WD, 1 mg/kg, vs 0.3 mg/kg): increased
